Results published in US20220235144A1 (QILU PUGET SOUND BIOTHERAPEUTICS, published 2022).

Key:
[1] = target: T1, hSIRPαV1D1 with histidine tag (human, UniProt P78324 31-147); assay: SPR (Biacore 3000), IgG captured, single analyte concentration 50 nM
T1 construct: analyte of the Biacore experiments; also called first immunoglobulin-like domain of human SIRPα variant V1; not shown: histidine tag
Protocol: (§1) Briefly, biosensor analysis was conducted at 25° C. in an HPS-EP buffer (10 mM HEPES, 150 mM NaCl, 3 mM EDTA, 0.005% polysorbate 20, 0.1% bovine serum albumin, pH 7.4) using a Biacore 3000 optical biosensor equipped with a CM5 sensor chip according to the manufacturer's protocol. The auto sampler was maintained at ambient temperature. Goat anti-human IgG capture antibody (Jackson Laboratories; 109-005-098) was immobilized on the four flow cells in each sensor chip using standard amine coupling chemistry. About 8000 resonance units (RU) of this antibody was immobilized on each flow cell. Flow cells 2, 3, and 4 were used to analyze captured anti-SIRPα antibodies (about 250 to 300 RU were captured on each of flow cells 2, 3, and 4), while flow cell 1 was used as the reference flow cell. The analytes tested were hSIRPαV1D1, hSIRPαV2D1, cynomolgus monkey SIRPαV1D1 (cSIRPαV1D1), cSIRPαV2D1, hSIRPβ1D1, and hSIRPγD1, each of which also included a histidine tag. The sequences of cSIRPαV1D1 and cSIRPαV2D2 are provided in SEQ ID NOs: 143 and 142, respectively. To avoid confusion, the differences between the amino acid sequences of cSIRPαV1D1 and cSIRPαV2D1 are not the same as the differences between the amino acid sequences of hSIRPαV1D1 and hSIRPαV2D1. […]
(§2) In a separate experiment, KDs of additional variants of Ab11_G4 and Ab24_G4 were determined for binding to hSIRPαV1D1 and hSIRPαV2D1. […]

[2] = target: T2, hSIRPαV2D1 with histidine tag (human); assay: as above
T2 construct: analyte of the Biacore experiments; also called first immunoglobulin-like domain of human SIRPα variant V2; not shown: histidine tag
T2 sequence (chain, as listed by the source limits assumed): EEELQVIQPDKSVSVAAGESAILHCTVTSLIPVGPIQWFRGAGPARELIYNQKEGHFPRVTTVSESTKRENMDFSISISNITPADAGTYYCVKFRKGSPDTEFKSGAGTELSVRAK
Protocol: as §1, §2

T1 sequence (P78324 31-147 limits assumed): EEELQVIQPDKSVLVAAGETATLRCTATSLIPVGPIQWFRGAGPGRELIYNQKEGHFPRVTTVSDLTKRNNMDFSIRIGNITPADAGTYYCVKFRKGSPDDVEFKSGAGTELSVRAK

Kd [1]: 19.4 nM
Kd [2]: 1.19 nM
B1: Ab24_G1AAA (antibody, human IgG1, kappa, L234A L235A)
heavy: EVQLVESGGGLVKPGGSLRLSCAASGFTFSSYVMSWVRQTPGKGLEWVATISSGGTYTYYPDSVKGRFTLSRDNAKNSLYLQMNSLRAEDTAVYYCASQLTGSEFDYWGQGTTVTVSSASTKGPSVFPLAPSSKSTSGGTAALGCLVKDYFPEPVTVSWNSGALTSGVHTFPAVLQSSGLYSLSSVVTVPSSSLGTQTYICNVNHKPSNTKVDKKVEPKSCDKTHTCPPCPAPEAAGGPSVFLFPPKPKDTLMISRTPEVTCVVVDVSHEDPEVKFNWYVDGVEVHNAKTKPREEQYNSTYRVVSVLTVLHQDWLNGKEYKCKVSNKALAAPIEKTISKAKGQPREPQVYTLPPSREEMTKNQVSLTCLVKGFYPSDIAVEWESNGQPENNYKTTPPVLDSDGSFFLYSKLTVDKSRWQQGNVFSCSVMHEALHNHYTQKSLSLSPGK
light: DIVLTQSPASLAVSLGERATISCRASESVDLYGTSFMHWYQQKPGQPPKLLIYRASNLESGVPDRFSGSGSRTDFTLTINPLQAEDVATYYCHQSSDELPWTFGGGTKVEIKRTVAAPSVFIFPPSDEQLKSGTASVVCLLNNFYPREAKVQWKVDNALQSGNSQESVTEQDSKDSTYSLSSTLTLSKADYEKHKVYACEVTHQGLSSPVTKSFNRGEC
notes: also called Ab24_AAA; 24_AAA
